Assay results published in publication doi:10.1101/2023.09.29.560207 (bioRxiv, 2023).

B1: His-RRM-1 (domain or fragment, human, UniProt Q13148 101-191, looked up)
chain: QKTSDLIVLGLPWKTTEQDLKEYFSTFGEVLMVQVKKDLKTGHSKGFGFVRFTEYETQVKVMSQRHMIDGRWCDCKLPNSKQSQDEPLRSR
B2: His-MBP-RGNEF^1–275 (domain or fragment, human, UniProt Q8N1W1 1-275, looked up)
chain: MELSCSEAPLYGQMMIYAKFDKNVYLPEDAEFYFTYDGSHQRHVMIAERIEDNVLQSSVPGHGLQETVTVSVCLCSEGYSPVTMGSGSVTYVDNMACRLARLLVTQANRLTACSHQTLLTPFALTAGALPALDEELVLALTHLELPLEWTVLGSSSLEVSSHRESLLHLAMRWGLAKLSQFFLCLPGGVQALALPNEEGATPLDLALREGHSKLVEDVTNFQGRWSPSFSRVQLSEEASLHYIHSSETLTLTLNHTAEHLLEADIKLFRKYFWDR

Tests used:
His-MBP-RGNEF^1–275 = molecular target: B2; test: SPR
His-GST-TDP-43^wt = His-GST-TDP-43^wt (human, UniProt Q13148 1-414); test: SPR
Sequence of His-GST-TDP-43^wt (Q13148 whole entry): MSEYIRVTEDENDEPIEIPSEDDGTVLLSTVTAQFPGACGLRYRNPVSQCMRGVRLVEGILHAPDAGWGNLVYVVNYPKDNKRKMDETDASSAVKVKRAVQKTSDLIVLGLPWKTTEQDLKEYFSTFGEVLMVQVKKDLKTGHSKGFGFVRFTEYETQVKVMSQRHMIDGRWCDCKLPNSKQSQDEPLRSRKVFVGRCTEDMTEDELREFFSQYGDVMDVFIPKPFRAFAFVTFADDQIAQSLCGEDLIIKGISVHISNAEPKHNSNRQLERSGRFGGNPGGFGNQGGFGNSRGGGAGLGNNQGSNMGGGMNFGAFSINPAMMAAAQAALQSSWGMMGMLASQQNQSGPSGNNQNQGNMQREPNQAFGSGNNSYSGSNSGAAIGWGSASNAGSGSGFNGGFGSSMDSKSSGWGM

His-TDP-43^1–296 (from UniProt Q13148 1-261) (domain or fragment)
Kd (His-MBP-RGNEF^1–275): 4.11 µM

B1
binding result (His-MBP-RGNEF^1–275): binds

B2
Kd (His-GST-TDP-43^wt): 1.78 µM
